Test results from publication PMC7368258 (Proceedings of the National Academy of Sciences of the …, 2020).

How the values were obtained:
[1] = molecular target: the molecule itself; test: FRET or BRET
[2] = molecular target: the molecule itself; test: SEC

Row | Protein | stoichiometry N [1] | stoichiometry N [2]
1 | mCER-Prx2(C51S), expressed in HEK293 cells (natural protein) MASGNARIGKPAPDFKATAVVDGAFKEVKLSDYKGKYVVLFFYPLDFTFVSPTEIIAFSNRAEDFRKLGCEVLGVSVDSQFTHLAWINTPRKEGGLGPLNIPLLADVTRRLSEDYGVLKTDEGIAYRGLFIIDGKGVLRQITVNDLPVGRSVDEALRLVQAFQYTDEHGEVCPAGWKPGSDTIKPNVDDSKEYFSKHN | 10 | 
2 | mCER-Prx2(T82E/A85E), expressed in HEK293 cells (natural protein) MASGNARIGKPAPDFKATAVVDGAFKEVKLSDYKGKYVVLFFYPLDFTFVCPTEIIAFSNRAEDFRKLGCEVLGVSVDSQFEHLEWINTPRKEGGLGPLNIPLLADVTRRLSEDYGVLKTDEGIAYRGLFIIDGKGVLRQITVNDLPVGRSVDEALRLVQAFQYTDEHGEVCPAGWKPGSDTIKPNVDDSKEYFSKHN | 2 | 
3 | recombinant mCER-Prx2 (natural protein) MASGNARIGKPAPDFKATAVVDGAFKEVKLSDYKGKYVVLFFYPLDFTFVCPTEIIAFSNRAEDFRKLGCEVLGVSVDSQFTHLAWINTPRKEGGLGPLNIPLLADVTRRLSEDYGVLKTDEGIAYRGLFIIDGKGVLRQITVNDLPVGRSVDEALRLVQAFQYTDEHGEVCPAGWKPGSDTIKPNVDDSKEYFSKHN |  | 10
4 | recombinant mCER-Prx2(C51S) (natural protein) MASGNARIGKPAPDFKATAVVDGAFKEVKLSDYKGKYVVLFFYPLDFTFVSPTEIIAFSNRAEDFRKLGCEVLGVSVDSQFTHLAWINTPRKEGGLGPLNIPLLADVTRRLSEDYGVLKTDEGIAYRGLFIIDGKGVLRQITVNDLPVGRSVDEALRLVQAFQYTDEHGEVCPAGWKPGSDTIKPNVDDSKEYFSKHN |  | 10
5 | recombinant mCER-Prx2(C172S) (natural protein) MASGNARIGKPAPDFKATAVVDGAFKEVKLSDYKGKYVVLFFYPLDFTFVCPTEIIAFSNRAEDFRKLGCEVLGVSVDSQFTHLAWINTPRKEGGLGPLNIPLLADVTRRLSEDYGVLKTDEGIAYRGLFIIDGKGVLRQITVNDLPVGRSVDEALRLVQAFQYTDEHGEVSPAGWKPGSDTIKPNVDDSKEYFSKHN |  | 2
